Laboratory results: US20250368745A1 (published 2025)

T1: human IL-18BP (human, UniProt O95998 31-194)
T1 construct: UniProt printed as 095998; also called hIL-18BP
T1 sequence: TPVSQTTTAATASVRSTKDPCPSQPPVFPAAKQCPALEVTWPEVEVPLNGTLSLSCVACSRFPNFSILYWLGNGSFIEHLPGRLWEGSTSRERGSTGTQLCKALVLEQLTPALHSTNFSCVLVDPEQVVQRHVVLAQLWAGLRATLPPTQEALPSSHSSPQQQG


The binders below were run against T1, human IL-18BP (assay: BLI, apparent KD).

| Binder | Kd |
| --- | --- |
| SA301a HC-S98I (antibody, name in Kabat numbering, V domains shown, IgG1 kappa) VH: QVQLQESGPGLVKPSQTLSLTCTVSGYSITSDYNSHWIRQPPGKGLEWIGYIHYSGSTNYNPSLKSRVTISRDTSKNQFSLKLSSVTAADTAVYYCARNYGIIYVNYFDYWGQGTLVTVSS VL: EIVLTQSPATLSLSPGERATLSCSASSSVSYMYWYQQKPGQAPRPLIYRTSNLASGIPARFSGSGSGTDFTLTISSLEPEDFAVYYCQQYHSYPTFGGGTKVEIK | 2.1 nM |
| SA301a HC-Y96N (antibody, name in Kabat numbering, V domains shown, IgG1 kappa) VH: QVQLQESGPGLVKPSQTLSLTCTVSGYSITSDYNSHWIRQPPGKGLEWIGYIHYSGSTNYNPSLKSRVTISRDTSKNQFSLKLSSVTAADTAVYYCARNNGSIYVNYFDYWGQGTLVTVSS VL: EIVLTQSPATLSLSPGERATLSCSASSSVSYMYWYQQKPGQAPRPLIYRTSNLASGIPARFSGSGSGTDFTLTISSLEPEDFAVYYCQQYHSYPTFGGGTKVEIK | 2.8 nM |
| SA301a HC-Y96G (antibody, name in Kabat numbering, V domains shown, IgG1 kappa) VH: QVQLQESGPGLVKPSQTLSLTCTVSGYSITSDYNSHWIRQPPGKGLEWIGYIHYSGSTNYNPSLKSRVTISRDTSKNQFSLKLSSVTAADTAVYYCARNGGSIYVNYFDYWGQGTLVTVSS VL: EIVLTQSPATLSLSPGERATLSCSASSSVSYMYWYQQKPGQAPRPLIYRTSNLASGIPARFSGSGSGTDFTLTISSLEPEDFAVYYCQQYHSYPTFGGGTKVEIK | 2.5 nM |
| SA301a HC-S98Y (antibody, name in Kabat numbering, V domains shown, IgG1 kappa) VH: QVQLQESGPGLVKPSQTLSLTCTVSGYSITSDYNSHWIRQPPGKGLEWIGYIHYSGSTNYNPSLKSRVTISRDTSKNQFSLKLSSVTAADTAVYYCARNYGYIYVNYFDYWGQGTLVTVSS VL: EIVLTQSPATLSLSPGERATLSCSASSSVSYMYWYQQKPGQAPRPLIYRTSNLASGIPARFSGSGSGTDFTLTISSLEPEDFAVYYCQQYHSYPTFGGGTKVEIK | 0.02 nM |
| SA301a HC-Y96L (antibody, name in Kabat numbering, V domains shown, IgG1 kappa) VH: QVQLQESGPGLVKPSQTLSLTCTVSGYSITSDYNSHWIRQPPGKGLEWIGYIHYSGSTNYNPSLKSRVTISRDTSKNQFSLKLSSVTAADTAVYYCARNLGSIYVNYFDYWGQGTLVTVSS VL: EIVLTQSPATLSLSPGERATLSCSASSSVSYMYWYQQKPGQAPRPLIYRTSNLASGIPARFSGSGSGTDFTLTISSLEPEDFAVYYCQQYHSYPTFGGGTKVEIK | 1.08 nM |
| SA301a HC-Y96Q (antibody, name in Kabat numbering, V domains shown, IgG1 kappa) VH: QVQLQESGPGLVKPSQTLSLTCTVSGYSITSDYNSHWIRQPPGKGLEWIGYIHYSGSTNYNPSLKSRVTISRDTSKNQFSLKLSSVTAADTAVYYCARNQGSIYVNYFDYWGQGTLVTVSS VL: EIVLTQSPATLSLSPGERATLSCSASSSVSYMYWYQQKPGQAPRPLIYRTSNLASGIPARFSGSGSGTDFTLTISSLEPEDFAVYYCQQYHSYPTFGGGTKVEIK | 0.65 nM |
| SA301a HC-Y96I (antibody, name in Kabat numbering, V domains shown, IgG1 kappa) VH: QVQLQESGPGLVKPSQTLSLTCTVSGYSITSDYNSHWIRQPPGKGLEWIGYIHYSGSTNYNPSLKSRVTISRDTSKNQFSLKLSSVTAADTAVYYCARNIGSIYVNYFDYWGQGTLVTVSS VL: EIVLTQSPATLSLSPGERATLSCSASSSVSYMYWYQQKPGQAPRPLIYRTSNLASGIPARFSGSGSGTDFTLTISSLEPEDFAVYYCQQYHSYPTFGGGTKVEIK | 4.02 nM |
| SA301a HC-Y96A (antibody, name in Kabat numbering, V domains shown, IgG1 kappa) VH: QVQLQESGPGLVKPSQTLSLTCTVSGYSITSDYNSHWIRQPPGKGLEWIGYIHYSGSTNYNPSLKSRVTISRDTSKNQFSLKLSSVTAADTAVYYCARNAGSIYVNYFDYWGQGTLVTVSS VL: EIVLTQSPATLSLSPGERATLSCSASSSVSYMYWYQQKPGQAPRPLIYRTSNLASGIPARFSGSGSGTDFTLTISSLEPEDFAVYYCQQYHSYPTFGGGTKVEIK | 0.47 nM |
| SA301a HC-S98P (antibody, name in Kabat numbering, V domains shown, IgG1 kappa) VH: QVQLQESGPGLVKPSQTLSLTCTVSGYSITSDYNSHWIRQPPGKGLEWIGYIHYSGSTNYNPSLKSRVTISRDTSKNQFSLKLSSVTAADTAVYYCARNYGPIYVNYFDYWGQGTLVTVSS VL: EIVLTQSPATLSLSPGERATLSCSASSSVSYMYWYQQKPGQAPRPLIYRTSNLASGIPARFSGSGSGTDFTLTISSLEPEDFAVYYCQQYHSYPTFGGGTKVEIK | 0.55 nM |
| SA301a HC-Y96P (antibody, name in Kabat numbering, V domains shown, IgG1 kappa) VH: QVQLQESGPGLVKPSQTLSLTCTVSGYSITSDYNSHWIRQPPGKGLEWIGYIHYSGSTNYNPSLKSRVTISRDTSKNQFSLKLSSVTAADTAVYYCARNPGSIYVNYFDYWGQGTLVTVSS VL: EIVLTQSPATLSLSPGERATLSCSASSSVSYMYWYQQKPGQAPRPLIYRTSNLASGIPARFSGSGSGTDFTLTISSLEPEDFAVYYCQQYHSYPTFGGGTKVEIK | 0.46 nM |
| SA301a HC-Y96H (antibody, name in Kabat numbering, V domains shown, IgG1 kappa) VH: QVQLQESGPGLVKPSQTLSLTCTVSGYSITSDYNSHWIRQPPGKGLEWIGYIHYSGSTNYNPSLKSRVTISRDTSKNQFSLKLSSVTAADTAVYYCARNHGSIYVNYFDYWGQGTLVTVSS VL: EIVLTQSPATLSLSPGERATLSCSASSSVSYMYWYQQKPGQAPRPLIYRTSNLASGIPARFSGSGSGTDFTLTISSLEPEDFAVYYCQQYHSYPTFGGGTKVEIK | 1.24 nM |
| SA301a HC-Y96R (antibody, name in Kabat numbering, V domains shown, IgG1 kappa) VH: QVQLQESGPGLVKPSQTLSLTCTVSGYSITSDYNSHWIRQPPGKGLEWIGYIHYSGSTNYNPSLKSRVTISRDTSKNQFSLKLSSVTAADTAVYYCARNRGSIYVNYFDYWGQGTLVTVSS VL: EIVLTQSPATLSLSPGERATLSCSASSSVSYMYWYQQKPGQAPRPLIYRTSNLASGIPARFSGSGSGTDFTLTISSLEPEDFAVYYCQQYHSYPTFGGGTKVEIK | 0.6 nM |
| SA301a HC-Y96V (antibody, name in Kabat numbering, V domains shown, IgG1 kappa) VH: QVQLQESGPGLVKPSQTLSLTCTVSGYSITSDYNSHWIRQPPGKGLEWIGYIHYSGSTNYNPSLKSRVTISRDTSKNQFSLKLSSVTAADTAVYYCARNVGSIYVNYFDYWGQGTLVTVSS VL: EIVLTQSPATLSLSPGERATLSCSASSSVSYMYWYQQKPGQAPRPLIYRTSNLASGIPARFSGSGSGTDFTLTISSLEPEDFAVYYCQQYHSYPTFGGGTKVEIK | 1.68 nM |
| SA301a HC-Y96K (antibody, name in Kabat numbering, V domains shown, IgG1 kappa) VH: QVQLQESGPGLVKPSQTLSLTCTVSGYSITSDYNSHWIRQPPGKGLEWIGYIHYSGSTNYNPSLKSRVTISRDTSKNQFSLKLSSVTAADTAVYYCARNKGSIYVNYFDYWGQGTLVTVSS VL: EIVLTQSPATLSLSPGERATLSCSASSSVSYMYWYQQKPGQAPRPLIYRTSNLASGIPARFSGSGSGTDFTLTISSLEPEDFAVYYCQQYHSYPTFGGGTKVEIK | 15.2 nM |
| SA301a HC-S98K (antibody, name in Kabat numbering, V domains shown, IgG1 kappa) VH: QVQLQESGPGLVKPSQTLSLTCTVSGYSITSDYNSHWIRQPPGKGLEWIGYIHYSGSTNYNPSLKSRVTISRDTSKNQFSLKLSSVTAADTAVYYCARNYGKIYVNYFDYWGQGTLVTVSS VL: EIVLTQSPATLSLSPGERATLSCSASSSVSYMYWYQQKPGQAPRPLIYRTSNLASGIPARFSGSGSGTDFTLTISSLEPEDFAVYYCQQYHSYPTFGGGTKVEIK | 5.41 nM |
| SA301a HC-S98N (antibody, name in Kabat numbering, V domains shown, IgG1 kappa) VH: QVQLQESGPGLVKPSQTLSLTCTVSGYSITSDYNSHWIRQPPGKGLEWIGYIHYSGSTNYNPSLKSRVTISRDTSKNQFSLKLSSVTAADTAVYYCARNYGNIYVNYFDYWGQGTLVTVSS VL: EIVLTQSPATLSLSPGERATLSCSASSSVSYMYWYQQKPGQAPRPLIYRTSNLASGIPARFSGSGSGTDFTLTISSLEPEDFAVYYCQQYHSYPTFGGGTKVEIK | 2.98 nM |
| SA301a HC-Y96F (antibody, name in Kabat numbering, V domains shown, IgG1 kappa) VH: QVQLQESGPGLVKPSQTLSLTCTVSGYSITSDYNSHWIRQPPGKGLEWIGYIHYSGSTNYNPSLKSRVTISRDTSKNQFSLKLSSVTAADTAVYYCARNFGSIYVNYFDYWGQGTLVTVSS VL: EIVLTQSPATLSLSPGERATLSCSASSSVSYMYWYQQKPGQAPRPLIYRTSNLASGIPARFSGSGSGTDFTLTISSLEPEDFAVYYCQQYHSYPTFGGGTKVEIK | 0.13 nM |
| SA301a HC-S98Q (antibody, name in Kabat numbering, V domains shown, IgG1 kappa) VH: QVQLQESGPGLVKPSQTLSLTCTVSGYSITSDYNSHWIRQPPGKGLEWIGYIHYSGSTNYNPSLKSRVTISRDTSKNQFSLKLSSVTAADTAVYYCARNYGQIYVNYFDYWGQGTLVTVSS VL: EIVLTQSPATLSLSPGERATLSCSASSSVSYMYWYQQKPGQAPRPLIYRTSNLASGIPARFSGSGSGTDFTLTISSLEPEDFAVYYCQQYHSYPTFGGGTKVEIK | 12.3 nM |
| SA301a HC-Y96S (antibody, name in Kabat numbering, V domains shown, IgG1 kappa) VH: QVQLQESGPGLVKPSQTLSLTCTVSGYSITSDYNSHWIRQPPGKGLEWIGYIHYSGSTNYNPSLKSRVTISRDTSKNQFSLKLSSVTAADTAVYYCARNSGSIYVNYFDYWGQGTLVTVSS VL: EIVLTQSPATLSLSPGERATLSCSASSSVSYMYWYQQKPGQAPRPLIYRTSNLASGIPARFSGSGSGTDFTLTISSLEPEDFAVYYCQQYHSYPTFGGGTKVEIK | 0.87 nM |
| SA301a HC-Y96T (antibody, name in Kabat numbering, V domains shown, IgG1 kappa) VH: QVQLQESGPGLVKPSQTLSLTCTVSGYSITSDYNSHWIRQPPGKGLEWIGYIHYSGSTNYNPSLKSRVTISRDTSKNQFSLKLSSVTAADTAVYYCARNTGSIYVNYFDYWGQGTLVTVSS VL: EIVLTQSPATLSLSPGERATLSCSASSSVSYMYWYQQKPGQAPRPLIYRTSNLASGIPARFSGSGSGTDFTLTISSLEPEDFAVYYCQQYHSYPTFGGGTKVEIK | 0.61 nM |
| SA301a HC-Y96E (antibody, name in Kabat numbering, V domains shown, IgG1 kappa) VH: QVQLQESGPGLVKPSQTLSLTCTVSGYSITSDYNSHWIRQPPGKGLEWIGYIHYSGSTNYNPSLKSRVTISRDTSKNQFSLKLSSVTAADTAVYYCARNEGSIYVNYFDYWGQGTLVTVSS VL: EIVLTQSPATLSLSPGERATLSCSASSSVSYMYWYQQKPGQAPRPLIYRTSNLASGIPARFSGSGSGTDFTLTISSLEPEDFAVYYCQQYHSYPTFGGGTKVEIK | 0.31 nM |
| SA301a HC-S98T (antibody, name in Kabat numbering, V domains shown, IgG1 kappa) VH: QVQLQESGPGLVKPSQTLSLTCTVSGYSITSDYNSHWIRQPPGKGLEWIGYIHYSGSTNYNPSLKSRVTISRDTSKNQFSLKLSSVTAADTAVYYCARNYGTIYVNYFDYWGQGTLVTVSS VL: EIVLTQSPATLSLSPGERATLSCSASSSVSYMYWYQQKPGQAPRPLIYRTSNLASGIPARFSGSGSGTDFTLTISSLEPEDFAVYYCQQYHSYPTFGGGTKVEIK | 26.9 nM |
